We go through four molecules from patent US20240279331A1 (University of California, published 2024).

Changes are numbered by the printed parent chain.

In experiment [1] the target is T1, NCR3 on cell (on-cell binding in the affinity-maturation table) (human, UniProt O14931 19-201, limits assumed).
T1 construct: On cell
T1 sequence (looked up): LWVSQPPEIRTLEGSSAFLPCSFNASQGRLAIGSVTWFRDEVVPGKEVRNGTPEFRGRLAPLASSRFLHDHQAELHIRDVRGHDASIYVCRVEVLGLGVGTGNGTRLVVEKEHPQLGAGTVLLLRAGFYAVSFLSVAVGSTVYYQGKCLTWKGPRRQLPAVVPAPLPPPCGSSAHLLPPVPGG
The experiment is described as follows: on-cell binding, Fab on NCR3.

The target in experiment [2] is T2, CD16 extracellular domain fused to a generic transmembrane domain, on tetracycline-inducible FlpIn cells (human, UniProt P08637 17-208).
T2 construct: extracellular domain; HEK293 FlpIn cells, expression on tetracycline addition; also called CD16 over expression cell line; CD16A; not shown: transmembrane domain of platelet-derived growth factor (so in the source) with a HA tag
T2 sequence (P08637 17-208): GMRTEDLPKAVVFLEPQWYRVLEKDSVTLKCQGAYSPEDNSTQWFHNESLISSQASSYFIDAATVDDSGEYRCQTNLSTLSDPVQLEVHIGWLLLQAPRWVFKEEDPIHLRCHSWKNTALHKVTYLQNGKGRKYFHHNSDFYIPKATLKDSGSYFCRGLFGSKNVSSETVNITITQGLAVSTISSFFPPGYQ
The experiment is described as follows: flow cytometry, Fab on tetracycline-inducible cell lines over-expressing each ECD (FIG. S5). Here is the method:
(§1) To investigate the specificity of both activating and non-functional antibodies for their receptor targets, we developed a tetracycline-inducible cell line for each protein target—CD16, NCR1, NCR3, CD244, TNFRSF9, and TNFSF4. The ECDs of these proteins were fused to a generic transmembrane domain and were expressed upon tetracycline addition.
(§2) Titrations were performed on primary human NK cells or tetracycline induced overexpression cell lines as indicated. When tetracycline induced overexpression cell lines were used, cells were dosed with 10 μg/mL tetracycline for 2 days prior to staining. The starting concentration of each Fab or bispecific antibody was 1 μM, and serial 1:5 dilutions were performed. Antibodies were incubated with cells for 1 hr at 4° C., washed 2 times in 3% BSA in PBS pH 7.4, and stained for 30 min with an Alexafluor-647 conjugated goat anti-human IgG F(ab′)2 fragment (Jackson ImmunoResearch Laboratories) at a 1:50 dilution. After an additional 3 washes, cells were fixed and fluorescence was quantified using a CytoFLEX (Beckman Coulter). All flow cytometry data were analyzed using FlowJo software.
(In general: A flow cytometer gives signals particle by particle.)

Experiment [3] deals with T3, CD244 extracellular domain fused to a generic transmembrane domain, on tetracycline-inducible FlpIn cells (UniProt Q9BZW8 22-229).
T3 construct: extracellular domain; not shown: transmembrane domain of platelet-derived growth factor (so in the source) with a HA tag
T3 sequence (looked up): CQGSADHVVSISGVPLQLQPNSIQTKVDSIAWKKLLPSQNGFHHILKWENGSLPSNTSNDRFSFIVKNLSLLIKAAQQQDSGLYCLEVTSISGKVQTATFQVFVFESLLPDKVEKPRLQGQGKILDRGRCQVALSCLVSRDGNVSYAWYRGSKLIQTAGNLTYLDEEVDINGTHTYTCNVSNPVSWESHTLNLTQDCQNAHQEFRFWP
Described as above. Here is the method:
as §1, §2

The target in experiment [4] is T4, NCR1 extracellular domain fused to a generic transmembrane domain, on tetracycline-inducible FlpIn cells (human, UniProt O76036 22-258).
T4 construct: extracellular domain; HEK293 FlpIn cells, expression on tetracycline addition; also called NCR1 over expression cell line; not shown: transmembrane domain of platelet-derived growth factor (so in the source) with a HA tag
T4 sequence (O76036 22-258): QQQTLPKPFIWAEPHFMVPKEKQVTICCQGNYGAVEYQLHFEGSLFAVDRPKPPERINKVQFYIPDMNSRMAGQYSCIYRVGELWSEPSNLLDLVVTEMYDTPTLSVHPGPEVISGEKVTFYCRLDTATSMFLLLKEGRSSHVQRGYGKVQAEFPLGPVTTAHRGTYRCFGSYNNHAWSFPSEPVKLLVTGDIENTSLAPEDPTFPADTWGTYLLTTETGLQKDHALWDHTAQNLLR
The description is as above. Here is the method:
as §1, §2

In experiment [5] the target is T5, TNFRSF9 extracellular domain fused to a generic transmembrane domain, on tetracycline-inducible FlpIn cells (UniProt Q07011 24-186).
T5 construct: extracellular domain; also called 4-1BB; not shown: transmembrane domain of platelet-derived growth factor (so in the source) with a HA tag
The experiment is described as above. Here is the method:
as §1, §2

Experiment [6] addresses T6, TNFSF4 extracellular domain fused to a generic transmembrane domain, on tetracycline-inducible FlpIn cells (UniProt P23510 51-183).
T6 construct: extracellular domain; also called OX40L; not shown: transmembrane domain of platelet-derived growth factor (so in the source) with a HA tag
T6 sequence (looked up): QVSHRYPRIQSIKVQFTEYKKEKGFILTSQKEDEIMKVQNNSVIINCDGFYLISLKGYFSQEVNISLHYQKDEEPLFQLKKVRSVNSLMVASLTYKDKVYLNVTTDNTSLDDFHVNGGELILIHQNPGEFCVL
The experiment is described as above. Here is the method:
as §1, §2

Experiment [7] concerns the target T7, NCR3 (antigen of the ELISA in the affinity-maturation table) (human, UniProt O14931 19-135, limits assumed).
T7 construct: also called Natural Cytotoxicity Triggering Receptor 3
T7 sequence (looked up): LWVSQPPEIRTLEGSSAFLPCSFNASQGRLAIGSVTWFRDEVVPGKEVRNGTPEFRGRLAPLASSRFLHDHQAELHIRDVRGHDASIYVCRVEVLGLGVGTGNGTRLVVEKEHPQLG
The experiment is described as follows: ELISA, Fab on NCR3. (In general: An ELISA detects its analyte on a solid surface through an enzyme-linked reagent.)

For experiment [8], the target named is T8, NCR3 extracellular domain TEV-cleavable Fc-fusion, biotinylated (human, UniProt O14931 19-135, biotinylated (site not stated)).
T8 construct: extracellular domain; Antigen of the phage selections and Fab-phage ELISAs; not shown: TEV cleavage site and Fc domain
T8 sequence (looked up): T7 sequence (looked up)
Put plainly: Fab-phage selection and Fab-phage ELISA on biotinylated ECD Fc-fusion (antigen column of Table S1). How it is done:
(§3) To generate antibodies against these antigens, we expressed the extracellular domains (ECDs) of these proteins as TEV-cleavable Fc-fusions and performed Fab-phage display selections to enrich for high affinity antibody binders (FIG. S1), as previously described [Hornsby, M. et al., Mol Cell Proteomics. 14(10), 2833-2847 (2015)]. After each selection, Fab-phage ELISAs were performed to determine the relative affinity and selectivity of these binders for their antigen targets (FIG. S2).
(§4) TEV-cleavable Fc-fusion proteins were expressed and biotinylated in Expi293F cells using the standard expression protocol. Media were harvested after 4 days of expression and protein was purified by protein A affinity chromatography. Phage selections were performed according to previously established protocols1 with the Fab-phage Library E2. Non-specific binders were depleted from the library by incubating the phage pool with Fc-domain immobilized on streptavidin beads. Fab phage were selected using biotinylated Fc-fusions that were captured on streptavidin-coated magnetic beads, and were released through TEV elution. Each selection consists of four rounds. With each round, decreasing amounts of Fc-fusions (1 μM, 100 nM, 10 nM, and […]) were used. ELISAs were performed for 96 individual Fab-phage clones from the third or fourth rounds of selection to evaluate for affinity and selectivity.
(§5) ELISAs were performed as previously described1. In brief, Maxisorp plates were coated with 10 μg/mL of Neutravidin overnight at 4° C. Biotinylated target antigen (20 nM) was captured on the Neutravidin coated plates for 30 min, and then exposed to a 1:5 dilution of phage supernatants for 30 min. Bound phage were detected via a horseradish-peroxidase-conjugated anti-phage monoclonal antibody (GE Lifesciences).

Experiment [9] has as its target T9, NCR3 as expressed on NK cells (human, UniProt O14931 19-201).
T9 construct: whole, on cells; Primary human peripheral blood NK cells; NK92MI cells in the bispecific cytotoxicity assay; also called peripheral blood NK cells; NCR3+ NK92MI cells
T9 sequence (looked up): T1 sequence (looked up)
The experiment is described as follows: flow cytometry, Fab titration on peripheral blood NK cells (FIG. S6). Here is the method: (§6) To evaluate the affinity of the selected antibodies for NK cells, we titrated the nine Fab clones on peripheral blood NK cells.
as §2

The target in experiment [10] is T10, NCR3 extracellular domain fused to a generic transmembrane domain, on tetracycline-inducible FlpIn cells (human, UniProt O14931 19-135).
T10 construct: extracellular domain; HEK293 FlpIn cells, expression on tetracycline addition; also called NCR3 over expression cell line; not shown: transmembrane domain of platelet-derived growth factor (so in the source) with a HA tag
T10 sequence (looked up): T7 sequence (looked up)
Put plainly: flow cytometry, Fab on tetracycline-inducible cells over-expressing the ECD (FIG. S5). Here is the method: as §1, §2

The target of experiment [11] is T11, CD16 extracellular domain TEV-cleavable Fc-fusion, biotinylated (human, UniProt P08637 17-208, biotinylated (site not stated)).
T11 construct: extracellular domain; Antigen of the phage selections and Fab-phage ELISAs; also called CD16A; not shown: TEV cleavage site and Fc domain
T11 sequence (P08637 17-208): as the sequence (P08637 17-208) above
Put plainly: Fab-phage selection and Fab-phage ELISA on biotinylated ECD Fc-fusion (antigen column of Table S1). How it is done:
as §3, §4, §5

Experiment [12] has as its target T10, NCR3 extracellular domain fused to a …. Put plainly: flow cytometry, Fab on tetracycline-inducible cell lines over-expressing each ECD (FIG. S5). Here is the method: as §1, §2
For experiment [13], the target named is T12, CD16 as expressed on NK cells (human, UniProt P08637 17-254).
T12 construct: whole, on cells; Primary human peripheral blood NK cells; PBMCs in the bispecific cytotoxicity assay; also called peripheral blood NK cells; PBMCs
T12 sequence (P08637 17-254): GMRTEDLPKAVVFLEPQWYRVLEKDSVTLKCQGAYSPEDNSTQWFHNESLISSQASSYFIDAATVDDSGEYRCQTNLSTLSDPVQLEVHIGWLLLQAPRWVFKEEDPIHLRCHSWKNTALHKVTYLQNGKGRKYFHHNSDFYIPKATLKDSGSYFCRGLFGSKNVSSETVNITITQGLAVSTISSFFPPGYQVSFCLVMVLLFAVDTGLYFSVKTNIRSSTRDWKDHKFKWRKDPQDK
The experiment is described as follows: flow cytometry, Fab titration on peripheral blood NK cells (FIG. S6). Here is the method:
as §6, §2

The target in experiment [14] is T2, CD16 extracellular domain fused to a …. The experiment is described as follows: flow cytometry, Fab on tetracycline-inducible cells over-expressing the ECD (FIG. S5). How it is done:
as §1, §2

B1: NCR3.18 Fab (Fab)
heavy: EVQLVESGGGLVQPGGSLRLSCAASGFNVSSSSIHWVRQAPGKGLEWVASISSSSGSTSYADSVKGRFTISADTSKNTAYLQMNSLRAEDTAVYYCARRISSYYMSYYDSFYYAGMDYWGQGTLVTVSSASTKGPSVFPLAPSSKSTSGGTAALGCLVKDYFPEPVTVSWNSGALTSGVHTFPAVLQSSGLYSLSSVVTVPSSSLGTQTYICNVNHKPSNTKVDKKVEPKSCDKTHT
light: DIQMTQSPSSLSASVGDRVTITCRASQSVSSAVAWYQQKPGKAPKLLIYSASSLYSGVPSRFSGSRSGTDFTLTISSLQPEDFATYYCQQSSSSLITFGQGTKVEIKRTVAAPSVFIFPPSDSQLKSGTASVVCLLNNFYPREAKVQWKVDNALQSGNSQESVTEQDSKDSTYSLSSTLTLSKADYEKHKVYACEVTHQGLSSPVTKSFNRGEC
notes: also called parental NCR3.18 clone; anti-NCR3 Fab #78
B1: the values for the EC50 in experiment [1] and in experiment [7] were 2.27 nM and 1.63 nM, respectively. The binding result in experiment [2], in experiment [3], in experiment [4], in experiment [5] and in [6] was “no binding” throughout.

B2: NCR3.19 Fab (Fab)
heavy: EVQLVESGGGLVQPGGSLRLSCAASGFNVYSYSIHWVRQAPGKGLEWVASIYSYYGSTSYADSVKGRFTISADTSKNTAYLQMNSLRAEDTAVYYCARWYQYYYIGTAAMDYWGQGTLVTVSSASTKGPSVFPLAPSSKSTSGGTAALGCLVKDYFPEPVTVSWNSGALTSGVHTFPAVLQSSGLYSLSSVVTVPSSSLGTQTYICNVNHKPSNTKVDKKVEPKSCDKTHT
light: B1 light with S91Q, S92W, S93Y, S94P
notes: also called anti-NCR3 Fab #79
Turning to B2, the binding result in experiment [8] is recorded as “binds”; in [2], “no binding”; in experiment [3] it was “no binding”; in experiment [4], “no binding”; in [5], “no binding”; in [6], “no binding”. Further, the binding result in experiment [9] and in experiment [10] was “binds” throughout.

B3: NCR3.12 Fab (Fab)
heavy: EVQLVESGGGLVQPGGSLRLSCAASGFNISSSSIHWVRQAPGKGLEWVAYISSSSGYTSYADSVKGRFTISADTSKNTAYLQMNSLRAEDTAVYYCARYSYFYGGYFYWTSWGAFDYWGQGTLVTVSSASTKGPSVFPLAPSSKSTSGGTAALGCLVKDYFPEPVTVSWNSGALTSGVHTFPAVLQSSGLYSLSSVVTVPSSSLGTQTYICNVNHKPSNTKVDKKVEPKSCDKTHT
light: B1 light with S93Y, S94W, L95P, I96F
notes: also called anti-NCR3 Fab #72
On to B3, for which the binding result in experiment [8] was “binds”; in [2], “no binding”; in experiment [3] it was “no binding”; in [4] it was “no binding”; in experiment [5], “no binding”; in experiment [6], “no binding”. Also, the binding result in [9] and in [10] was “binds” each time.

B4: CD16.03 Fab (Fab)
heavy: EVQLVESGGGLVQPGGSLRLSCAASGFNFSSYSIHWVRQAPGKGLEWVASIYSSSGSTSYADSVKGRFTISADTSKNTAYLQMNSLRAEDTAVYYCARWSYDQYYDQHGYYFYYWGFDYWGQGTLVTVSSASTKGPSVFPLAPSSKSTSGGTAALGCLVKDYFPEPVTVSWNSGALTSGVHTFPAVLQSSGLYSLSSVVTVPSSSLGTQTYICNVNHKPSNTKVDKKVEPKSCDKTHT
light: B1 light with S93A, S94E
notes: also called anti-CD16 Fab #3
Turning to B4, the binding result in experiment [11] was “binds”; in experiment [3], “no binding”; in experiment [4], “no binding”; in experiment [12] it was “no binding”; in experiment [5], “no binding”; in [6], “no binding”. The binding result in [13] and in experiment [14] was “binds” in each case.

As usually defined, the EC50 is the concentration giving half of the maximal effect. Read a high EC50 as a need for much substance.
